According to the supplement of paper PMC9170038:

System: MS2 coat protein
Assay: apparent KD of MS2 coat protein; designed switch direction (-1 OFF switch, 1 ON switch): -1; higher = weaker reporter binding
In short: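 Transcription of designed RNA switches on Illumina chips was done by stalled E. coli RNA polymerase. SNAP-549-labelled MS2 coat protein was then titrated in doubling steps from 0.7 or 1.5 nM to 3 µM, with steps of 0.8–1.5 h at the lowest and 10–20 min at the highest concentration. The per-design median over clusters of curve-fitted normalised fluorescence is reported as apparent KD.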

[1] = input ligand: microRNA oligo, concentration not stated
[2] = Eterna round: R95, input ligand: FMN 200 uM
[3] = Eterna round: R95, input ligand: microRNA oligo, concentration not stated
[4] = Eterna round: R95, input ligand: none

Sequence | apparent KD of MS2 coat protein (input ligand: FMN 200 uM) [nM] | apparent KD of MS2 coat protein [1] [nM] | apparent KD of MS2 coat protein (input ligand: none) [nM] | apparent KD of MS2 coat protein [2] [nM] | apparent KD of MS2 coat protein [3] [nM] | apparent KD of MS2 coat protein [4] [nM]
AUGUUACUCUGAGGAUAUUGUUUAUUCUUCUCACAUGAGGAUCACCCAUGUUUCCAUGUUAACCGCAAGAAGGCAGUAUUGAUU [JR_ExcNG2_Sub030] (Eterna round: R96, puzzle: Exclusion NG 2) | 76.1 | 49.1 | 55.1 | – | – | –
CGUGCGUAUGUGAGGAUAUGCUGGUCCUUGGAUCAGCAGAAGGCACAUGAGGAUCACCCAUGUGGUGUCGUACG [salish99_Bmod_Ex4_018] (puzzle: Brourd's mod of Exclusion 4) | – | – | – | 18.7 | 182 | 395
AGUAGUAGUAUCCGAUCCUACAUGAGGAUCACCCAUGUAGCUAGACGUGCACGCGAUGCUCGUCAGACUACCGGAUG [salish99_TOv1_r3_041] (puzzle: Sensor v3, turn-off variant 1) | – | – | – | 23.7 | 23 | 29.6
ACGCCUCCUGUUAGGAUAUGCAUCGGGCUUCCGCAGCAGAAGGAACAUGAGGAUCACCCAUGUCAAAUAAAAUC [Raleed] (puzzle: Brourd's mod of Exclusion 4) | – | – | – | – | 17 | –
UUUUAACAUGAGGAUCACCCAUGUGAGGAUAUCGAAAUUUAUAUUAAUAUUUUUAUAUCGAGAAGGCACAUUUU [JMF 72] (puzzle: Exclusion 1) | – | – | – | – | 84.7 | –
AAAUUAGCAAGUAGGUCCGACAUGAGGAUCACCCAUGUUAUCUGAAAUAACGCAGCAUGAUUGUGAGCUCGUCUUAG [Sensor-V1 #6] (Eterna round: R97, puzzle: Sensor, turn-off variant 1) | 80.8 | – | 105 | – | – | –
AGCGACCAAGGAUAUACAUGAGGAUCACCCAUGUCGGCGACCUUCCUGGGAUUUCUUAGUAGAAGGUGGUCAAU [Gesodieddi] (puzzle: Exclusion 3) | – | – | – | – | 35.2 | –
ACAUGAGGAUCACCCAUGUCCGGCUGGUCUGUUUCGGUUGUCGAGGAUAUAGUUCGGUGUUCGCGCUAGAAGGUGGGAGCUGGG [Aenatbe mod 56] (Eterna round: R96, puzzle: Exclusion NG 3) | 161 | 116 | 147 | – | – | –
UCCCACCGAGGAUAUGACCAUCAGAACAUGAGGAUCACCCAUGUAUUUCUAUGUUCAGAGUCAGAAGGCGGUUUAU [Eternabot (L2) Solution 20] (Eterna round: R97, puzzle: Exclusion 5) | 190 | – | 72.4 | – | – | –
UAAAAUAGUGUGAGGAUAUGCUGGUCCUUGGAUCAGCAGAAGGCACAUGAGGAUCACCCAUGUAGUUAAUUAUA [Mat - Exclusion 4 - JL Mod - D24] (puzzle: Brourd's mod of Exclusion 4) | – | – | – | – | 36.8 | –
CAGCUGAAAGUCAGGAUAUCUAGAGCUUCGGCUCUAGAGAAGGGACAUGAGGAUCACCCAUGUGAUCACAGCUG [BmEx4/4-A1] (Eterna round: R97, puzzle: Brourd's mod of Exclusion 4) | 152 | – | 1900 | – | – | –
UUACAAUGUCGCUUAAUAGCUUUUUGCUCGUCUUAUAUUACAUGAGGAUCACCCAUGUAGAUCAUGUGGCGUGACCU [JL ViennaUCT Maridi mod 7] (puzzle: Sensor v3, turn-off variant 2) | – | – | – | 206 | 40.7 | 210
CAUAAGUGAGGAUAUCCUGGCCCUAUGCGUUAGGCGCGCUAGGAGAAGGCACAUGAGGAUCACCCAUGUCUCUC [Eternabot (L1) Solution 21] (Eterna round: R97, puzzle: Exclusion 4) | 76.6 | – | 29.7 | – | – | –
UAUUCGCAAGUGAGAUCCCACAUGAGGAUCACCCAUGUGCUCGUCUUAUAAGGUACUGUGACGAAAGUCACGGUACC [Sensor 3, v1 - 91 v23] (Eterna round: R97, puzzle: Sensor, turn-off variant 1) | 32.4 | – | 36.1 | – | – | –
CUUCGUAUAGAGGAUAUAGGUUACUGCGGUAUCCUAGAAGGCUGUACAUGAGGAUCACCCAUGUACUUCAGAUC [Exclusion 6 - B - 13:c] (puzzle: Exclusion 6) | – | – | – | – | 12.6 | –
GUAGCUUCGGCUACUACAAGCUUUUUGCUCGUCUUAUUAACAUGAGGAUCACCCAUGUUAAUGAGACCUCAUGUAUU [Sensor v3 - turn-off variant 2 - 6] (puzzle: Sensor v3, turn-off variant 2) | – | – | – | 13.4 | 17 | 10.9
GUGGUGACAGGAUAUACAUGAGGAUCACCCAUGUGAGGAGGAGGAGAGAGGUGAAGGAGUAGAAGGGUCAGAGA [JR_Exclu3_Sub025] (puzzle: Exclusion 3) | – | – | – | 102 | 91.5 | 106

Sequence | apparent KD of MS2 coat protein (input ligand: FMN 200 uM) [nM] | apparent KD of MS2 coat protein [1] [nM] | apparent KD of MS2 coat protein (input ligand: none) [nM] | apparent KD of MS2 coat protein [2] [nM] | apparent KD of MS2 coat protein [3] [nM] | apparent KD of MS2 coat protein [4] [nM]
AUUUAGUCAGGAUAUUAGUAGUAAAUGAAUAAAAUUAUUACUGAGAAGGGACAUGAGGAUCACCCAUGUGUCUA [Mat - Exclusion 4 - Eli Mod - D8] (Eterna round: R97, puzzle: Exclusion 4) | 60 | – | 28.5 | – | – | –
UUAUUAAGUGUGAGGAUAUGCUGGUCCUUGGAUCAGCAGAAGGCACAUGAGGAUCACCCAUGUACUUUAUAAAU [JL bmx4 3.05] (puzzle: Brourd's mod of Exclusion 4) | – | – | – | – | 14.6 | –
GUGAAGUGAGGAUAUACGAGAGAGGCUGAACCGGACGAGAAGUAGAAGGCACAUGAGGAUCACCCAUGUAAGGA [JR_Exclu4_Sub022] (puzzle: Exclusion 4) | – | – | – | – | 34.4 | –
GCAAGAAUAGGAUAUACACCAUGUCAGCUUCUAUACAACGCACAUGAGGAUCACCCAUGUAGAAGGGUUCUCUG [Exclusion-2-#10] (Eterna round: R97, puzzle: Exclusion 2) | 358 | – | 365 | – | – | –
GUGUUUUAUGUAGGAUAUGCAUACUGUUAGUAUGCAGAAGGACAUGAGGAUCACCCAUGUAUAUUAUUAUUAUAUAUCAUACAU [MOD2 of Hoglahoo's Title] (Eterna round: R96, puzzle: Exclusion NG 1) | 98 | 16 | 18.9 | – | – | –
CGAUGCUCGUGCCCACAUGAGGAUCACCCAUGUCGAGUCAGCGAGGAUAUCGGUGGCACAUAGUACGAGAAGGCGCGGACCUGA [Ex NG3 #18] (Eterna round: R96, puzzle: Exclusion NG 3) | 17.7 | 11.5 | 17 | – | – | –
AAUGAUUGACGAGGAUAUUGUGUUAGAUCACGACGAGAAGGCGUCUGUCACAUGAGGAUCACCCAUGUGAGCCUUGUGGAUAGA [Ex NG1 #77] (Eterna round: R96, puzzle: Exclusion NG 1) | 618 | 399 | 378 | – | – | –
UUUAUGUCAGGAUAUGAGUCGUAGAACAAUAGUACUACGUCUCAGAAGGGACAUGAGGAUCACCCAUGUGCCUC [Fiskers Ex 4 Super Stable 44 mod 26] (puzzle: Exclusion 4) | – | – | – | – | 35.7 | –
AGUCGGUCAGGAUAUGCAAACGUGGACAUGAGGAUCACCCAUGUAACGUGGGCCUGGUUUGUAGAAGGGACGAGCA [EX5 #86] (Eterna round: R97, puzzle: Exclusion 5) | 35.1 | – | 34.5 | – | – | –
AGGAAUGAAGGAUAUACAUGAGGAUCACCCAUGUAAAAAAAGUCGUUUAUUGUGUCAUGUAGAAGGUCAAGAAG [JR_Exclusion3_Sub002] (puzzle: Exclusion 3) | – | – | – | 29.6 | 29.6 | 33
CAGCUGAAUGUGAGGAUAUUACGAGCCUCGGCUCGUGAGAAGGCACAUGAGGAUCACCCAUGUCUCAACAGCUG [BmEx4/2-B2] (Eterna round: R97, puzzle: Brourd's mod of Exclusion 4) | 759 | – | 36.2 | – | – | –
GAUUAUGCGAGCUUUAGGGACAUGAGGAUCACCCAUGUUCGUCUUAUUAGUCUAAGUACACUGACAUACCUAAAUCU [JMF 61] (puzzle: Sensor v3, turn-off variant 1) | – | – | – | 13.3 | 14.2 | 12.4
GAAAAGCUAGGAUAUACAUGAGGAUCACCCAUGUAAGGUCGCUUCUUAUAUAGGGCAUGUAGAAGGAGCAAAGA [Eneriner] (puzzle: Exclusion 3) | – | – | – | 70.6 | 35.9 | 32.1
UAACUUCUUGUAAGGAUAUCGGCGCGAAAGCGCAACGAGAAGGUACAUGAGGAUCACCCAUGUGAAAUAAGAAU [Mod of Zala 12 - Jieux - Brourd's Mod of Exclusion 4] (Eterna round: R97, puzzle: Brourd's mod of Exclusion 4) | 104 | – | 28.3 | – | – | –
UUGUUUGUAGUGAGGAUAUCGUUGAGGAAGAGGAUCGAGAAGGCACAUGAGGAUCACCCAUGUUAGAUGUGGUU [JR_BMOE4_Sub082] (Eterna round: R96, puzzle: Brourd's mod of Exclusion 4) | 261 | 114 | 161 | – | – | –
CUUUUGUGAGGAUAUUAGUAGUUAAUAAAUAAAAUUACUACUGAGAAGGCACAUGAGGAUCACCCAUGUUCCUC [salish99_ex4_r3_051] (puzzle: Exclusion 4) | – | – | – | – | 32.8 | –
CUGUUUUUCGCAGGAUAUGCUCCUCCAUUAUUUGCAGAAGGGCGUUAAACAUGAGGAUCACCCAUGUAUGGUAAUGACUAUUGC [JR_ExcNG1_Sub066] (Eterna round: R96, puzzle: Exclusion NG 1) | 27.4 | 12.6 | 19.6 | – | – | –
